Earlier results as cited in publication PMC9760423.

Tests used:
4E-BP2 (Homo sapiens) = 4E-BP2 (Homo sapiens) (UniProt Q13542)
[1] = target: Cdc4 (Saccharomyces cerevisiae) (UniProt P07834)
UniProt P07834, sequence (P07834 whole entry): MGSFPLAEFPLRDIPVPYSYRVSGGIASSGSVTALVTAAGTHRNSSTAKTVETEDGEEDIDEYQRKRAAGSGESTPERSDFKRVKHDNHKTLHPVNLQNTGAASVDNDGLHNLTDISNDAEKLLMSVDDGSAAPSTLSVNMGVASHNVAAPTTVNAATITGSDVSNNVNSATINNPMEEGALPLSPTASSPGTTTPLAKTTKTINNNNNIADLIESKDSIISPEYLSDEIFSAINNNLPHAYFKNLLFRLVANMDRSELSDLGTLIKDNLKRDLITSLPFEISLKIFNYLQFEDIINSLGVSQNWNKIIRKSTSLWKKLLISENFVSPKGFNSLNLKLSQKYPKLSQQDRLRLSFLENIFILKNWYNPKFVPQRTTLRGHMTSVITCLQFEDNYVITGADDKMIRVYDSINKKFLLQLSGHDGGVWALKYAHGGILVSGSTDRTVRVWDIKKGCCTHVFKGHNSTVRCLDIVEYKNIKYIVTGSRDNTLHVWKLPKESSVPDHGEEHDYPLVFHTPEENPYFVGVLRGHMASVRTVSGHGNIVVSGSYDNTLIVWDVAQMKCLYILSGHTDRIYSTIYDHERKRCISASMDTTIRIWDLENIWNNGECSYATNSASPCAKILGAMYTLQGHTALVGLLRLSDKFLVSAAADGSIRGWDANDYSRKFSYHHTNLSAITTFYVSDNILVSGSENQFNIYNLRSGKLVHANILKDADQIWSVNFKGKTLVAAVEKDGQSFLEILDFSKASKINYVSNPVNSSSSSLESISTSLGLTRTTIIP

UniProt Q13542, sequence (Q13542 whole entry): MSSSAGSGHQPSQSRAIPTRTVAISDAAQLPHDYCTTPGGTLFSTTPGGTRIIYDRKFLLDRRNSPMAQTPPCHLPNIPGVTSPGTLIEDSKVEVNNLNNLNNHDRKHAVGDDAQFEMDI

| Kd (4E-BP2 (Homo sapiens)) [µM] | Kd [1] [µM] | Substance |
| --- | --- | --- |
| 0.0032 | – | eIF4E (from UniProt P06730) |
| – | 1 | Sic1 (from UniProt P38634) |
